Laboratory results: paper PMC9536601

How the values were obtained:
[1] = target: chimeric hexon of Ad5:H6.2 (Ad5 vector, hexon residues 112-593 from Ad6 hexon, HVR7 IGNTDTF), on the virion (human adenovirus type 5 | human adenovirus type 6) (UniProt P04133); assay: SPR; Biacore T200; about 300 to 5,000 RU of Ad virions immobilised on a CM5 chip, coagulation factors flowed over at four concentrations, 50 uL/min; 10 mM HEPES, 150 mM NaCl, 1 mM CaCl2, 0.5 mM MgCl2, 0.1% BSA, 0.05% polysorbate 20, pH 7.4; global fit to a 1:1 kinetic interaction model, double referencing
[2] = target: chimeric hexon of Ad5:H1.6 (Ad5 vector, hexon residues 112-593 from Ad1 hexon, HVR7 IGVTDRY), on the virion (human adenovirus type 5 | human adenovirus type 1) (UniProt P04133); assay: as above

Row | Substance | Kd [1] [µM] | Kd [2] [µM]
1 | mouse prothrombin (coagulation factor II) (from UniProt P19221 44-618) (natural protein) | 0.56 | 
2 | mouse coagulation factor X (from UniProt O88947 41-481) (natural protein) | 0.681 | 4.2
